Results published in US20230272050A1, “BINDING PROTEIN SPECIFIC FOR THE SPIKE PROTEIN OF SEVERE ACUTE RESPIRATORY SYNDROME CORONA VIRUS 2 (SARS-COV-2)” (priority 2020, published 2023).

Molecular target: mutant of SARS CoV-2 S protein (69del, 70del, Y144del, N501Y, A570D, D614G, P681H, T7161, S982A, D1118H) (Severe acute respiratory syndrome coronavirus 2, UniProt P0DTC2, A570D/D1118H/D614G/DEL144-144/N501Y/P681H/S982A/T716I)

## 212434 (NAAVLDIAQHSATEEIWWLPNLTKQQKVWFIMSLTQDPSVSKEVLGEAQKLNDSQAPK) [compound 212434]
  binding affinity to mutant S protein (B.1.1.7), qualitative: showed binding affinity
